# From IntAct's records for PubMed 29892012
# B1: Keratin, type I cuticular Ha8 (Homo sapiens), O76015 (parent)
# chain: MTSSYSSSSCPLGCTMAPGARNVSVSPIDIGCQPGAEANIAPMCLLANVAHANRVRVGSTPLGRPSLCLPPTCHTACPLPGTCHIPGNIGICGAYGENTLNGHEKETMQFLNDRLANYLEKVRQLEQENAELEATLLERSKCHESTVCPDYQSYFHTIEELQQKILCSKAENARLIVQIDNAKLAADDFRIKLESERSLRQLVEADKCGTQKLLDDATLAKADLEAQQESLKEEQLSLKSNHEQEVKILRSQLGEKLRIELDIEPTIDLNRVLGEMRAQYEAMLETNRQDVEQWFQAQSEGISLQDMSCSEELQCCQSEILELRCTVNALEVERQAQHTLKDCLQNSLCEAEDRFGTELAQMQSLISNVEEQLSEIRADLERQNQEYQVLLDVKTRLENEIATYRNLLESEDCKLPCNPCSTSPSCVTAPCAPRPSCGPCTTCGPTCGASTTGSRF
# B2: Transmembrane protein 218 (Homo sapiens), A2RU14 (parent)
# chain: MAGTVLGVGAGVFILALLWVAVLLLCVLLSRASGAARFSVIFLFFGAVIITSVLLLFPRAGEFPAPEVEVKIVDDFFIGRYVLLAFLSAIFLGGLFLVLIHYVLEPIYAKPLHSY
# partner: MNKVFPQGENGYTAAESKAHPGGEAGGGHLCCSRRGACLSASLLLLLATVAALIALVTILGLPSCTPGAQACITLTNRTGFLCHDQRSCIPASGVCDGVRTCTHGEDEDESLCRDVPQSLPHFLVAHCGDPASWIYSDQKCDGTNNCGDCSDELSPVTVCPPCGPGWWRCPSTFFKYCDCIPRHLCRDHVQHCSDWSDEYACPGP
# B3: Ena/VASP-like protein (Homo sapiens), Q9UI08 (parent)
# chain: MSEQSICQARASVMVYDDTSKKWVPIKPGQQGFSRINIYHNTASNTFRVVGVKLQDQQVVINYSIVKGLKYNQATPTFHQWRDARQVYGLNFASKEEATTFSNAMLFALNIMNSQEGGPSSQRQVQNGPSPDEMDIQRRQVMEQHQQQRQESLERRTSATGPILPPGHPSSAASAPVSCSGPPPPPPPPVPPPPTGATPPPPPPLPAGGAQGSSHDESSMSGLAAAIAGAKLRRVQRPEDASGGSSPSGTSKSDANRASSGGGGGGLMEEMNKLLAKRRKAASQSDKPAEKKEDESQMEDPSTSPSPGTRAASQPPNSSEAGRKPWERSNSVEKPVSSILSRTPSVAKSPEAKSPLQSQPHSRMKPAGSVNDMALDAFDLDRMKQEILEEVVRELHKVKEEIIDAIRQELSGISTT
# partner: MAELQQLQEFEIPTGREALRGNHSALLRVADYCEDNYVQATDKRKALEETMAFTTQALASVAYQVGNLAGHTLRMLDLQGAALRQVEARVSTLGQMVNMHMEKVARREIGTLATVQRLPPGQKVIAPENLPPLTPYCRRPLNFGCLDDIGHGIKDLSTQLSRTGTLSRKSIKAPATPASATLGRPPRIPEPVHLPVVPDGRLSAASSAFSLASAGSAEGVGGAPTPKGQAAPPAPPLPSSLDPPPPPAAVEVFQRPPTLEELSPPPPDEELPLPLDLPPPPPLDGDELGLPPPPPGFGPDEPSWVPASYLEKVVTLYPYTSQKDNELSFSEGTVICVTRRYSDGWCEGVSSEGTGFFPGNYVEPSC
# B4: Enhancer of mRNA-decapping protein 3 (Homo sapiens), Q96F86 (parent)
# chain: MATDWLGSIVSINCGDSLGVYQGRVSAVDQVSQTISLTRPFHNGVKCLVPEVTFRAGDITELKILEIPGPGDNQHFGDLHQTELGPSGAGCQVGINQNGTGKFVKKPASSSSAPQNIPKRTDVKSQDVAVSPQQQQCSKSYVDRHMESLSQSKSFRRRHNSWSSSSRHPNQATPKKSGLKNGQMKNKDDECFGDDIEEIPDTDFDFEGNLALFDKAAVFEEIDTYERRSGTRSRGIPNERPTRYRHDENILESEPIVYRRIIVPHNVSKEFCTDSGLVVPSISYELHKKLLSVAEKHGLTLERRLEMTGVCASQMALTLLGGPNRLNPKNVHQRPTVALLCGPHVKGAQGISCGRHLANHDVQVILFLPNFVKMLESITNELSLFSKTQGQQVSSLKDLPTSPVDLVINCLDCPENVFLRDQPWYKAAVAWANQNRAPVLSIDPPVHEVEQGIDAKWSLALGLPLPLGEHAGRIYLCDIGIPQQVFQEVGINYHSPFGCKFVIPLHSA
# partner: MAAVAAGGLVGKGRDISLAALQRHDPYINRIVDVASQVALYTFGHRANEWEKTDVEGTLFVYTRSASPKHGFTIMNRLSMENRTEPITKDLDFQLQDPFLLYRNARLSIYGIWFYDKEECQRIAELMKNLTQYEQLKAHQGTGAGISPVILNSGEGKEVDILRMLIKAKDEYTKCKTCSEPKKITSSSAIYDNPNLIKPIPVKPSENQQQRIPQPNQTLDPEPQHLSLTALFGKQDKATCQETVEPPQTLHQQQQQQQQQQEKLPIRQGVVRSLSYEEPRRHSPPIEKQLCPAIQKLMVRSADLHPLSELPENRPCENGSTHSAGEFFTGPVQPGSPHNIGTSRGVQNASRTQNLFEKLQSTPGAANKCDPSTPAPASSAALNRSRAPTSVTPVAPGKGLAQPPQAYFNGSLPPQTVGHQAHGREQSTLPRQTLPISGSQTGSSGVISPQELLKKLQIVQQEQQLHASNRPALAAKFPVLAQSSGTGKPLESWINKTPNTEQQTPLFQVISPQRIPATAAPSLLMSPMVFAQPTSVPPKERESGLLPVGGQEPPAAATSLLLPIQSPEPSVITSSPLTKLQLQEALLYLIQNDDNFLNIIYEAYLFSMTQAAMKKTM
# B5: Inositol polyphosphate 5-phosphatase K (Homo sapiens), Q9BT40 (parent)
# chain: MSSRKLSGPKGRRLSIHVVTWNVASAAPPLDLSDLLQLNNRNLNLDIYVIGLQELNSGIISLLSDAAFNDSWSSFLMDVLSPLSFIKVSHVRMQGILLLVFAKYQHLPYIQILSTKSTPTGLFGYWGNKGGVNICLKLYGYYVSIINCHLPPHISNNYQRLEHFDRILEMQNCEGRDIPNILDHDLIIWFGDMNFRIEDFGLHFVRESIKNRCYGGLWEKDQLSIAKKHDPLLREFQEGRLLFPPTYKFDRNSNDYDTSEKKRKPAWTDRILWRLKRQPCAGPDTPIPPASHFSLSLRGYSSHMTYGISDHKPVSGTFDLELKPLVSAPLIVLMPEDLWTVENDMMVSYSSTSDFPSSPWDWIGLYKVGLRDVNDYVSYAWVGDSKVSCSDNLNQVYIDISNIPTTEDEFLLCYYSNSLRSVVGISRPFQIPPGSLREDPLGEAQPQI
# Variants of: B1
# Settings: with k22e_human KRT2, P35908
# Chain of k22e_human KRT2, P35908 (P35908 whole entry): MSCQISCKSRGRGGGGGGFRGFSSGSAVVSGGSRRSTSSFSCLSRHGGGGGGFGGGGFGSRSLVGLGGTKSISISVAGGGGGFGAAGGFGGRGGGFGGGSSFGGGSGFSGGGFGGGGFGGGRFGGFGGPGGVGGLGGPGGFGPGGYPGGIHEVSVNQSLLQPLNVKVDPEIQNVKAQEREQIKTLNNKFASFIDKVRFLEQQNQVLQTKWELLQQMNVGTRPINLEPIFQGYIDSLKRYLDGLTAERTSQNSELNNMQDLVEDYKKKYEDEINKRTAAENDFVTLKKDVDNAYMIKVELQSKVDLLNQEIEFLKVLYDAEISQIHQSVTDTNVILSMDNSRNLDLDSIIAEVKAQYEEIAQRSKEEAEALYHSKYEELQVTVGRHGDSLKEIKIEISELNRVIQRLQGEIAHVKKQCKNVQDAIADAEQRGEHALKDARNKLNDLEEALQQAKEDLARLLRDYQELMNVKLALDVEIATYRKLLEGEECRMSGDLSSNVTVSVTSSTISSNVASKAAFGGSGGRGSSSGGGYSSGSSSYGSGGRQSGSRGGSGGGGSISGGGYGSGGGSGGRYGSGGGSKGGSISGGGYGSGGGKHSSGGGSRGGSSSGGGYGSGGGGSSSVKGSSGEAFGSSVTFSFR
row,effect of a mutation on the interaction,Variant
1,with no effect,D306A

# Variants of: B1
# Settings: with txnd5_human TXNDC5, Q8NBS9
# Chain of txnd5_human TXNDC5, Q8NBS9 (Q8NBS9 whole entry): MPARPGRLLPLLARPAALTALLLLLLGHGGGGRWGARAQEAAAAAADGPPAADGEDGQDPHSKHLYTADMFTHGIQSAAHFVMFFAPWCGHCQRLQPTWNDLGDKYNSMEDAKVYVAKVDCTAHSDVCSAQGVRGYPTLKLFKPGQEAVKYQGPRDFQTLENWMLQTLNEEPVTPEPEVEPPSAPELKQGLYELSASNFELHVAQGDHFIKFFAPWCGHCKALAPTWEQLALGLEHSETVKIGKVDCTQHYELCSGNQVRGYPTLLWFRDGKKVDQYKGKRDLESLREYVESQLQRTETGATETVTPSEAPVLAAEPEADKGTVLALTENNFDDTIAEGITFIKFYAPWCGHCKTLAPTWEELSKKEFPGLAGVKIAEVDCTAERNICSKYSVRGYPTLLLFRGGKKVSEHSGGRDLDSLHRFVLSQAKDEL
row,effect of a mutation on the interaction,Variant
1,with no effect,D306A

# Variants of: B1
# Settings: with prs8_human PSMC5, P62195
# Chain of prs8_human PSMC5, P62195 (P62195 whole entry): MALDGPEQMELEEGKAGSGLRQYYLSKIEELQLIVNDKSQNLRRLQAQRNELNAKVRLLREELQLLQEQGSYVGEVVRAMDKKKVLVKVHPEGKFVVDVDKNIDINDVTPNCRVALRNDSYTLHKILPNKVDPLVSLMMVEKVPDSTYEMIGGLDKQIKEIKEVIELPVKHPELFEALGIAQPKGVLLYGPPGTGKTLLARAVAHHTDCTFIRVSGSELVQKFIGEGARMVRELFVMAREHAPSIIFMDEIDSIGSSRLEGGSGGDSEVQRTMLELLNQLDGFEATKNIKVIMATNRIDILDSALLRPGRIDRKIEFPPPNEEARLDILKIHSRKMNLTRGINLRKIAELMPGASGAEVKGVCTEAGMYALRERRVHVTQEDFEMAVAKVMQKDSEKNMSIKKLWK
row,effect of a mutation on the interaction,Variant
1,with no effect,D306A

# Variants of: B1
# Settings: with p85b_human PIK3R2, O00459
# Chain of p85b_human PIK3R2, O00459 (O00459 whole entry): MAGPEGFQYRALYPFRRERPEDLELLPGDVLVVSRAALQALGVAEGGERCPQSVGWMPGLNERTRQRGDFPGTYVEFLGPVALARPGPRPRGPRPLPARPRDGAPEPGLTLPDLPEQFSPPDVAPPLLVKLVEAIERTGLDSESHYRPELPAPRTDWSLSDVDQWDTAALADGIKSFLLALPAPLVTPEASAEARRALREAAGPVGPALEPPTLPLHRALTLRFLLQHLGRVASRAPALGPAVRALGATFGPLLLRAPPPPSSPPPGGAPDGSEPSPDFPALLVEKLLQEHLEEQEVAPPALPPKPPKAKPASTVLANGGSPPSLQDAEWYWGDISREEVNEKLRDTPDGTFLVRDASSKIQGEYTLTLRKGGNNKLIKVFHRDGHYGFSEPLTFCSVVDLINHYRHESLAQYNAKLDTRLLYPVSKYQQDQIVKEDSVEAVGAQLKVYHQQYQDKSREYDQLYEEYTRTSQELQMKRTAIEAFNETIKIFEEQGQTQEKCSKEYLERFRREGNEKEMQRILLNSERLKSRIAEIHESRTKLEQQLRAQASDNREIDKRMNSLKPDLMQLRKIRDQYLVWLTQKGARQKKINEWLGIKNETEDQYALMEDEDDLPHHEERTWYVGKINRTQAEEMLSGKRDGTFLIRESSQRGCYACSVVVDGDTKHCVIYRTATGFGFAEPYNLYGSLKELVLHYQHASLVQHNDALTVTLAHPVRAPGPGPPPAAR
row,effect of a mutation on the interaction,Variant
1,with no effect,D306A

# Variants of: B1
# Settings: with KRT6A
row,effect of a mutation on the interaction,Variant
1,with no effect,D306A

# Variants of: B1
# Settings: with k2c4_human KRT4, P19013
# Chain of k2c4_human KRT4, P19013 (P19013 whole entry): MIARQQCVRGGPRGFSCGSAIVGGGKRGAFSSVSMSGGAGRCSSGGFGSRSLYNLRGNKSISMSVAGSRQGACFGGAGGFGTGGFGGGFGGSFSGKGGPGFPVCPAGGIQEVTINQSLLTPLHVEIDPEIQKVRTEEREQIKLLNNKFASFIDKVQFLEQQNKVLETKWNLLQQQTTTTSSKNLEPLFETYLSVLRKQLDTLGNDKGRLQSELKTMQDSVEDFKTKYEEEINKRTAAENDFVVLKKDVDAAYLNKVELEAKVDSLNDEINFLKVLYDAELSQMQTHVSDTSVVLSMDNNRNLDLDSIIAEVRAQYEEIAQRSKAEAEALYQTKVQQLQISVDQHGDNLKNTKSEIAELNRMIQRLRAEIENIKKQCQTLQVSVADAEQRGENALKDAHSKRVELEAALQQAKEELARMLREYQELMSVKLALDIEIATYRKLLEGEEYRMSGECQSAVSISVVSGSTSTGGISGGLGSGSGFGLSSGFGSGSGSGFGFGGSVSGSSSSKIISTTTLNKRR
row,effect of a mutation on the interaction,Variant
1,with no effect,D306A

# Variants of: B1
# Settings: with txlnb_human TXLNB
row,effect of a mutation on the interaction,Variant
1,with no effect,D306A

# Variants of: B1
# Settings: with KRT79, Q5XKE5
# Chain of KRT79, Q5XKE5 (Q5XKE5 whole entry): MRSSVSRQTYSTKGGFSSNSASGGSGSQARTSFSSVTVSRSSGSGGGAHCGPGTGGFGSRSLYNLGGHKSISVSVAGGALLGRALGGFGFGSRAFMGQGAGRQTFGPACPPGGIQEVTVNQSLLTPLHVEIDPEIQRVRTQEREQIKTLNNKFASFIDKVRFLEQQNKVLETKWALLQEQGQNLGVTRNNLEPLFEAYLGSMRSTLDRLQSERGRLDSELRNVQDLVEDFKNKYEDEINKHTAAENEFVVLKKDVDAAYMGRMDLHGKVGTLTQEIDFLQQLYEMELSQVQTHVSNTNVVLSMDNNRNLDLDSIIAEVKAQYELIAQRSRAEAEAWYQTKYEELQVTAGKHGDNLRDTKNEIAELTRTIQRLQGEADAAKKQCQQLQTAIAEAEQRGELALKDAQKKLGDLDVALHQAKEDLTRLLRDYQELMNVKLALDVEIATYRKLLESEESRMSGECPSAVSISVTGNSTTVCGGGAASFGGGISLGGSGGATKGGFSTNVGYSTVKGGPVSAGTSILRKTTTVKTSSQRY
row,effect of a mutation on the interaction,Variant
1,with no effect,D306A

# Variants of: B1
# Settings: with txlna_human TXLNA
row,effect of a mutation on the interaction,Variant
1,with no effect,D306A

# Variants of: B2
# Settings: with lrad1_human LDLRAD1, Q5T700
row,effect of a mutation on the interaction,Variant
1,with no effect,P66S

# Variants of: B3
# Settings: with abi3_human ABI3, Q9P2A4
row,effect of a mutation on the interaction,Variant
1,with no effect,R10Q

# Variants of: B4
# Settings: with dcp1b_human DCP1B
row,effect of a mutation on the interaction,Variant
1,with no effect,F213L

# Variants of: B5
# Settings: with ar6p1_human ARL6IP1, Q15041
# Chain of ar6p1_human ARL6IP1, Q15041 (Q15041 whole entry): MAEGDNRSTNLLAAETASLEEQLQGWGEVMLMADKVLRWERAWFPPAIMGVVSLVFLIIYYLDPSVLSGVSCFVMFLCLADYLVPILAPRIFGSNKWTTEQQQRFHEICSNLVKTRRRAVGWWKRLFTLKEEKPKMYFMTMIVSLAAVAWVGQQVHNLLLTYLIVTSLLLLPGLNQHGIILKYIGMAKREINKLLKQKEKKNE
row,effect of a mutation on the interaction,Variant
1,with no effect,R437K
